± gives the half width of the 95% confidence interval.
Columns and labels:
[1] = folding stability dG unfold from trypsin proteolysis; higher = more stable
Procedure, shortened: (§1)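 Designed mini-proteins with no cysteine and under 80 residues were kept only if AlphaFold2 dimer inter-PAE was above 15. In a PA-tagged cDNA display construct, they were digested with trypsin and chymotrypsin and then sequenced. K50 was inferred by Bayesian fitting of counts, and unfolding free energy was derived per protease or combined against a sequence-predicted unfolded-state K50 and a shared folded-state K50.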

[2] = folding stability dG unfold from chymotrypsin proteolysis; higher = more stable
Procedure, shortened: as §1

[3] = folding stability dG unfold (combined trypsin and chymotrypsin); higher = more stable
Procedure, shortened: as §1

Sequence | folding stability dG unfold [1] [kcal/mol] | folding stability dG unfold [2] [kcal/mol] | folding stability dG unfold [3] [kcal/mol]
SAGGSQLDEYRKKVEEAIEKAKAEGKPVEKIELTGSEEVAKEVREWLEEQGIPKSVKVTVTPPAINESAGGS [r16_164_JUSTAS] | 0.433 ± 0.04 | 1.13 ± 0.015 | 0.83 ± 0.077
SAGGSAGGSAGGSYTVSEIPEEGLVLKTLPNGVVTRYKVSPDGSLEEIATFEPGNGVLIKSAGGSAGGSAGG [r7_659_JUSTAS] | -0.0116 ± 0.3 | 1.1 ± 0.096 | 0.766 ± 0.11
SAGGMVRITRDEDGILRVELFVEGTPEEAEEEAARLVRLLEELGFEEVRVEREPFGDGVVVTIEAKASAGGS [r8_113_TrMRF] | 2.55 ± 0.11 | 2.86 ± 0.083 | 2.74 ± 0.076
SAGGSAGGEEEELTEEERRELERRRRRLEEERRRRRPPRPRLRLTLTVRLPDGSTVTLEVEIRLSAGGSAGG [r6_844_TrROS_Hall] | 2.2 ± 0.061 | 3.73 ± 0.056 | 3.16 ± 0.14
SAGGKLIIVIEVNGETIEVDLEEAETLEEAIQKVLDEIRERFPEIGTVRIKVFDEKGKLIKEIEIKLKSAGG [r13_257_TrROS_Hall] | 3.25 ± 0.12 | 3.6 ± 0.18 | 3.51 ± 0.17
SAGGPLTLEFTLPNGDEVGDVTVEPLPDDSYIVTVVAEDKDRPGVYYVSLVRIPPTDRTLEVVSGPVYSAGG [r13_370_TrMRF] | 1.12 ± 0.02 | 1.24 ± 0.12 | 1.2 ± 0.064
SAGGSAGGSEDKYIIRVEVLLPNKKRTYVLEEPEKGIEAFKKRLEKEYPDEPIVEVRIEVLPASAGGSAGGS [r12_429_TrMRF] | 0.874 ± 0.032 | 1.37 ± 0.11 | 1.19 ± 0.1
SRDLLKELAEKFPNFEPKGVQEEPTDNGGVKLQVIARHPKNGRYYKIEITVPPDGKIEDIEIEPVPLDDLSA [r9_274_TrROS] | 2.3 ± 0.045 | 2.823 ± 0.021 | 2.61 ± 0.09
SAGGSAGGSAGDGMIEVKVEFERLFFDENGNVTKKEKVDEIIKVPPVTIDTSTGKLTPLPSAGGSAGGSAGG [r17_413_JUSTAS] | 0.261 ± 0.051 | 0.229 ± 0.021 | 0.284 ± 0.073
SAGGSAGGMTPEEERRKKESPVPPVNKVTVKIPVPSSVSEEVAKEIAEKLEKESGAKKVEVILPSAGGSAGG [r6_517_JUSTAS] | 0.257 ± 0.042 | 1.34 ± 0.098 | 1 ± 0.091
SAGMKAYNIKELKIEKIEKKGNKIKIKISGKGKFYFKTFSNGSAIIYIKKTNKAYYIDSNGKIVYIKDTSAG [r5_348_TrMRF] | 1.75 ± 0.12 | 1.56 ± 0.13 | 1.76 ± 0.27
SAGSPETVTLPLTVTLPPGVPLSQIEAVLKKNGFTELEITASPTPDGTLRYAIDATMPVSVVEKLIKALSAG [r5_376_JUSTAS] | 1.8 ± 0.035 | 2.24 ± 0.042 | 2.08 ± 0.059
SAGGMPYTLVGEKTESLGEGNTVVTKTYKPPDGTYTVETTTITTDPENGSTSTTSTTTTIPPNTPEALSAGG [r19_173_JUSTAS] | -1.12 ± 0.34 | 0.334 ± 0.25 | -0.1 ± 0.31
SMKITTDPVNKTISATFPPGTDPLAETQKIVDEVKKKENSGDITITFSTGNTTINYTLGTNTVTTTPAGTSA [r9_224_JUSTAS] | -0.0577 ± 0.063 | -0.35 ± 0.19 | -0.0954 ± 0.096
SAGGMPADTPVIPIEILDIRVEPDPESDSYTAEVKVRFPDGTEKTFTIKLPKDATLEDVIEKAKELAASAGG [r13_578_TrMRF] | 3.83 ± 0.2 | 4.09 ± 0.11 | 4.1 ± 0.18
SAGMMEIVEVKEVDGRLELKIKDKETGEEFTITVERKEDGELKVTIEMSDEAAERLRELFPEIDRLEIKSAG [r5_933_TrROS_Hall] | 2.19 ± 0.069 | 3.37 ± 0.19 | 2.93 ± 0.097
SPWYVRIKLEYPGKEKRIMIPPDESISQIKDNIRDFAREMGLEEPPLDDFKIEDVEVFPDENGMVSIEIKSA [r9_1053_TrROS] | 0.606 ± 0.32 | 1.15 ± 0.21 | 0.819 ± 0.41
SAMELEFETDGSVSVEELIEEFKKAFPLVKEIEAEAEPIPYIPKYKVRFKIKLVPVPTPEEIEEFGKKKSAG [r14_645_TrMRF] | 1.02 ± 0.065 | 1.37 ± 0.21 | 1.2 ± 0.17
SAGGSAGGSAKAKVIKTEEFELPNGVRIRIEYIEVDGKLIEKVEIEIKAESEEQKKALEKASAGGSAGGSAG [r3_158_TrROS_Hall] | 1.29 ± 0.052 | 1.82 ± 0.15 | 1.71 ± 0.17
SAGGSAGGSAGGDEVLVFETETVELEVEVRTLNEDGEETTEKEKVTLTVTRVVRLPPGLLSAGGSAGGSAGG [r7_926_TrROS_Hall] | 0.827 ± 0.083 | 1.15 ± 0.24 | 0.959 ± 0.44
SSYTVDVTFTDPSPPKPTHRTLSSIEDAIAEAKAELPPGSVATITVTYPDGSTETITIVGDGVVETKKTASA [r9_482_JUSTAS] | -0.116 ± 0.056 | 0.917 ± 0.039 | 0.561 ± 0.081

Sequence | folding stability dG unfold [1] [kcal/mol] | folding stability dG unfold [2] [kcal/mol] | folding stability dG unfold [3] [kcal/mol]
SAGGSAGGSAGFNIRIVNVEITGNKLTIYLPNGWVITIKFNKNGNINMKIEDIKPLPPGASAGGSAGGSAGG [r17_173_TrROS] | 3.02 ± 0.16 | 3.98 ± 0.064 | 3.61 ± 0.14
SAGGSAGGDALKELIKNMPPGEPRKITIPIKYEDGRYYRIDIEIQMNPNNGEWQLDIDIEPYPPSAGGSAGG [r6_545_TrROS] | 0.881 ± 0.089 | 2.46 ± 0.054 | 1.91 ± 0.25
SAGGSAMTPVTLEITSEEELEAKIEELAPPGRTVTINVTSTTEKTRVEDDVTRDYTVVTANVTFPPSAGGSA [r15_95_JUSTAS] | 0.181 ± 0.1 | 0.573 ± 0.04 | 0.399 ± 0.12
SAGDFLKNLPPGIKRWRPVASDPDGHFVFVFKYKTPDRPRYMVIQFPPNGRIQDIHIFPPDEADKAVNKSAG [r5_73_TrROS] | 0.72 ± 0.073 | 2.04 ± 0.23 | 1.52 ± 0.25
SMPIEVRVDLERLEDGTLLAVIEIRHPDVQVAEDAAIELARELFPEDVELRIETTPDGRVIAPILLPLPESA [r9_646_TrMRF] | 3.14 ± 0.14 | 1.74 ± 0.17 | 2.58 ± 0.22
SAGGSAGGSAGGVSPEANIKEVSKDPKTGLTTSLAKDPNSDNEITITKDSSGNSSINISSAGGSAGGSAGGS [r10_450_JUSTAS] | 0.121 ± 0.038 | 1.08 ± 0.029 | 0.813 ± 0.073
SASFRLEFPGVRIEVEVEEVEVFPRPDGRPYRLYRAKIRFLDVPEELQALDFPFSLDDEIEVLFLVSLDSAG [r14_942_TrMRF] | 3.84 ± 0.07 | 4.36 ± 0.12 | 4.18 ± 0.12
SAGGSAGGSMYVVRAVIRRPKAVPPPLAEEEIDIPVADREITAEEIARLFTPPGYELVRIEADSAGGSAGGS [r12_611_TrMRF] | -0.177 ± 0.19 | -0.36 ± 0.24 | -0.225 ± 0.14
SAGMVTLRVKLKDGRELEIQLASEEEIESLPPGAKVIPIPAESEEEALEAAARLLAEEEGLEIEEVEKVSAG [r5_119_TrROS_Hall] | 0.671 ± 0.022 | 0.564 ± 0.074 | 0.638 ± 0.049
SAGMVITVPSDVPVEELLELARELARELGGGRVEVRTHPDNPEIVTATIDIPGTGKRILIINAPPGVLASAG [r5_912_TrMRF] | 2.66 ± 0.038 | 2.37 ± 0.028 | 2.52 ± 0.048
SMKPGEVKELTLKLTIPVKPGEITVTLVLKLEDGRYVVVESRATVKEDGTIEIEVKIRVYDPKTNEWKELSA [r9_349_TrROS_Hall] | 2.37 ± 0.19 | 3.28 ± 0.18 | 2.89 ± 0.35
SAGGMMTVRIVIEKDGKKITITAKVTKIEFDEETGKLTITFEDGSKKEIDLDKLKIKKIEVEPAPEEESAGG [r13_636_TrROS_Hall] | 1.66 ± 0.078 | 3.06 ± 0.19 | 2.81 ± 0.21
SAGGKPNWVWFKITINVTPEQLENMTLDEIADRVIDELMKLGFPIKKIEIDEIQWDGDRVTIYIRIRVSAGG [r13_432_TrROS] | 4.18 ± 0.16 | 4.59 ± 0.099 | 4.35 ± 0.14
SMKIVIVKNKDGTVIVRITFPNGEEITITAKTEEEAKKAIEELIKKLQEKYNIKIKIEVKPVKPGEVIEESA [r9_786_TrROS_Hall] | 2.92 ± 0.093 | 2.84 ± 0.08 | 2.93 ± 0.15
SRTIENPDNGIKITVDRVPGGRYRVHIFNPGGKPIHEREIPDMPIPPGDTREIKIPIKGLPPGMYLMLEPWS [r1_263_TrROS] | 0.502 ± 0.16 | 0.842 ± 0.13 | 0.719 ± 0.13
SAGMDPSDPNSITTLTTEVEPLPDGSTRVTTYTKLPDGTIVKNVTTLDPAGNVLTTTTTPIPPEALNASAGG [r19_285_JUSTAS] | 3.56 ± 0.17 | 3.85 ± 0.06 | 3.75 ± 0.096
SAGGLSYIELEVEFPGGGSFEEAKARAEKLAEEVRKKLGLKEVKIEIKKNPDGSYRVKITIKVPSKLSAGGS [r8_3_JUSTAS] | 2.76 ± 0.063 | 3.04 ± 0.077 | 3.02 ± 0.14
SASPDETVILEKVLPPSASPEEVEKEREEIREKLESLGAKVEVTIEPDPETGTIPIKITITKEQYEKLKSAG [r14_602_JUSTAS] | -0.459 ± 0.064 | 0.0517 ± 0.056 | 0.034 ± 0.15
SAGGSAETAIDLGPPNTTGVLEIEYFDENGNTRRATATFDPNPATISFNEPVEIPPNARIEIKPTSSAGGSA [r15_198_TrMRF] | -0.405 ± 0.21 | 0.857 ± 0.064 | 0.545 ± 0.14
SPIRIRIWNPKNNVPIDEIDIQPNEDGNYGIKIKFWMPGKQHEHTIPIPPGETADEFINDHGIRSIEIEPSA [r9_492_TrROS] | 0.13 ± 0.085 | 1.01 ± 0.11 | 0.7 ± 0.086
SAGGSAGGSGVSSVRPVALPGGRVLVLEYFSSTGKVRVTTLTVGDGRPARAESVTPVTPESILSAGGSAGGS [r12_961_JUSTAS] | 0.598 ± 0.052 | 0.275 ± 0.098 | 0.495 ± 0.09
